Laboratory results published in US6902918B1, “Oxygenase enzymes and screening method” (California Institute of Technology, priority 1998, dated 2005).

Legend:
[1] = Fluorescence image analysis of colonies on agar plates with naphthalene and hydrogen peroxide; assay type: cell-based, E. coli BL21(DE3); settings: naphthalene as substrate
[2] = Whole cell naphthalene hydroxylation assay, P450cam in E. coli with added HRP, 96-well plate; assay type: cell-based; settings: TB and 1.3 mM ALA, 100 μL volume
[3] = ABTS assay; reported by Sigma; cited from earlier work
[4] = HRP peroxidase activity test with ABTS and H2O2, expression in E. coli; assay type: cell-based, E. coli BL21(DE3)
Experimental: The PCR products were ligated back into the pET-22b(+) vector which was transformed into the BL21(DE3) cells by electroporation. Cell growth and expression was carried out in either 96-well or 384-well microplates in LB medium at 30° C. Peroxidase activity tests were performed with H2O2 and ABTS (32).
IPTG was omitted in all HRP expression experiments, unless otherwise specified. Peroxidase activity tests for HRP were performed with a classical peroxidase assay, ABTS and hydrogen peroxide (26). Fifteen μl of cell suspension was mixed with 140 μl of ABTS/H2O2 (2.9 mM ABTS, 0.5 mM H2O2, pH 4.5) in microplates, and the activity was determined with a SpectraMax plate reader (Molecular Devices, Sunnyvale, Calif.) at 25° C. A unit of HRP is defined as the amount of enzyme that oxidizes 1 μmole of ABTS per min at the assay conditions.

[5] = Colorimetric coupling of naphthol by laccase or HRP in cell solutions; assay type: biochemical; settings: 1-naphthol 100 uM
Experimental: Laccase was purchased from Sigma Chemicals as a crude acetone powder from the […] Rhus vernificera. […] Type II HRP (RZ approximately 2.0) and all other chemicals were purchased from Sigma. Fluorescence readings were taken with a Perkin-Elmer HTS 7000 plate reading fluorimeter. Excitation and emission wavelengths were 360 nm and 465 nm, respectively.
Experiments were performed at 25° C. in the wells of opaque, white Nunc 96-well plates with a total liquid of 200 uL. Except where stated otherwise, each well contained 10% pure ethanol to improve the solubility of substrates and products. Where HRP was used for comparison, approximately 2.3 units of HRP and 5 mM H2O2 were in each well. […] Tris buffer was not used because it increases background fluorescence. Except where stated, results are given from conditions at pH 9.0, which were either the best results or barely distinguishable from the other conditions.
In order to evaluate laccase in a useful whole cell assay to identify the formation of hydroxylated aromatic compounds by oxidative enzymes (such as cytochrome P450cam and toluene dioxygenase), laccase was added to solutions containing cells, naphthalene, and naphthol. P450cam was expressed in E. coli strain BL21(DE3) using plasmid pCWori+. BL21(DE3) cells with and without the expressed protein were grown in Terrific Broth and after 8 hours were induced with 1 mM IPTG for 24 hours. […]

[6] = 96-well plate whole cell assay of P450cam variants, generation of fluorescence per time, 3-phenylpropionate; assay type: cell-based, E. coli; settings: for Relative rate towards 3-phenylpropionate (generation of fluorescence per time): whole cells, 96-well plate
Experimental: (§1) For the microtitre plate assay, the cells (grown in 4 ml TB/amp (100 ug/ml) media) were centrifuged for 10 min at 4° C. After the supernatant solution was removed, the harvested cells were carefully resuspended in 1 ml buffer solution (dibasic phosphate, 100 mM, pH 9.0). Then, 20 μl aliquots were placed into a Nunc fluorescence microplate. The total 180 μl reaction mixture was made up of 100 μl dibasic sodium phosphate buffer (100 mM, pH9.0), 20 μl ethanol, 10 μl substrate stock (4.5 mM coumarin in 10% ethanol, or 2 mM 3-phenylpropionate in 10% ethanol, 2 mM naphthalene in pure ethanol), and 10 μl hydrogen peroxide stock solution (50 mM H2O2 stock). The other reaction conditions are those described in EXAMPLE 2. The fluorescence was measured as a function of time, and the relative rates presented in Table 2 are the slopes of that measurement (RFU/min).

[7] = assay type: cell-based, E. coli; settings: for Relative rate towards naphthalene (generation of fluorescence per time): whole cells, 96-well plate
[8] = 96-well plate whole cell assay of P450cam variants, generation of fluorescence per time, coumarin; assay type: cell-based, E. coli; settings: whole cells
Experimental: as §1

[9] = Stability of mutant HRP at 4° C.

B1: WT: native cytochrome P450cam monooxygenase of P. putida, SEQ. ID. NO. 2 (protein)
chain: TTETIQSNANLAPLPPHVPEHLVFDFDMYNPSNLSAGVQEAWAVLQESNVPDLVWTRCNGGHWIATRGQLIREAYEDYRHFSSECPFIPREAGEAYDFIPTSMDPPEQRQFRALANQVVGMPVVDKLENRIQELACSLIESLRPQGQCNFTEDYAEPFPIRIFMLLAGLPEEDIPHLKYLTDQMTRPDGSMTFAEAKEALYDYLIPIIEQRRQKPGTDAISIVANGQVNGRPITSDEAKRMCGLLLVGGLDTVVNFLSFSMEFLAKSPEHRQELIERPERIPAACEELLRRFSLVADGRILTSDYEFHGVQLKKGDQILLPQMLSGLDERENACPMHVDFSRQKVSHTTFGHGSHLCLGQHLARREIIVTLKEWLTRIPDFSIAPGAQIQHKSGIVSGVQALPLVWDPATTKAV
modifications: P. Putida
[1]
  colony fluorescence in digital scan: ~320 fluorescence units
[2]
  total activity (whole cell naphthalene hydroxylation): 430 RFU/min

B2: HRP: horseradish peroxidase; purchased from Sigma (type II) or expressed from synthetic gene in pETpelBHRP (protein, listed as Escherichia coli)
chain: MQLTPTFYDNSCPNVSNIVRDTIVNELRSDPRIAASILRLHFHDCFVNGCDASILLDNTTSFRTEKDAFGNANSARGFPVIDRMKAAVESACPRTVSCADLLTIAAQQSVTLAGGPSWRVPLGRRDSLQAFLDLANANLPAPFFTLPQLKDSFRNVGLNRSSDLVALSGGHTFGKNQCRFIMDRLYNFSNTGLPDPTLNTTYLQTLRGLCPLNGNLSALVDFDLRTPTIFDNKYYVNLEEQKGLIQSDQELFSSPDATDTIPLVRSFANSTQTFFNAFVEAMDRMGNITPLTGTQGQIRLNCRVVNSNS
[3]
  total activity of 1 mg of highly purified HRP: 1,000 units
[4]; 1 mM IPTG
  peroxidase activity in cells induced with IPTG: no peroxidase activity above background
[4]; no IPTG
  activity against ABTS in cells not induced with IPTG: weak but measurable activity
[5]
  time for color change from light yellow to dark brown: approximately 1 minute

B3: M7-6H (protein)
chain: TTETIQSNANLAPLPPHVPEHLVFDFDMYNPSNLSAGVQEAWAVLQESNVPDLVWTRCNGGHWIATRGQLIREAYEDYRHFSSECPFIPREAGEAYDFIPTSMDPPEQRQFRALANQVVGMPVVDKLENRIQELACSLIESLRPQGQCNFTEDYAEPFPIRIFMLLAGLPEEDIPHLKYLTDQMTRPDGSMTFAEAKEALYDYLIPIIEQRRQKPGTDAISIVANGQVNGRPITSDEAKRMCGLLLVGGLDTVVNFLSFSMEFLAKSPEHRQELIERPELIPAACEELLRRFSLVADGRILTSDYEFHGVQLKKGDQILLPQMLSGLDERKNACPMHVDFSRQKVSHTTFGHGSHLCLGQHLARREIIVTLKEWLTRIPDFSIAPGAQIQHKSGIVSGVQALPLVWDPATTKAV
modifications: Mutant M7-6H
[6]; another series of experiments
  increase in activity on 3-phenylpropionate compared to wild-type: 3.2 fold
[6]
  Relative rate towards 3-phenylpropionate (generation of fluorescence per time): 43.6 RFU/min
[7]; from Table 2 data
  increased activity over the wild type, naphthalene hydroxylation: 9.4 fold
[7]
  Relative rate towards naphthalene (generation of fluorescence per time): 86.7 RFU/min
[8]
  Relative rate towards coumarin (generation of fluorescence per time): 14.1 RFU/min

B4: HRP1A6: horseradish peroxidase mutant, Asn255 changed to Asp, SEQ. ID. NO. 17 (protein, listed as Escherichia coli)
chain: MQLTPTFYDNSCPNVSNIVRDTIVNELRSDPRIAASILRLHFHDCFVNGCDASILLDNTTSFRTEKDAFGNANSARGFPVIDRMKAAVESACPRTVSCADLLTIAAQQSVTLAGGPSWRVPLGRRDSLQAFLDLANANLPAPFFTLPQLKDSFRNVGLNRSSDLVALSGGHTFGKNQCRFIMDRLYNFSNTGLPDPTLNTTYLQTLRGLCPLNGNLSALVDFDLRTPTIFDNKYYVNLEEQKGLIQSDQELFSSPDATDTIPLVRSFANSTQTFFNAFVEAMDRMGNITPLTGTQGQIRLNCRVVNSNS
[9]
  stability: stable for up to a week
[4]; ABTS assay
  total activity: greater than 100 units/L
[4]; as little as 5 μM of IPTG added
  peroxidase activity on addition of IPTG: markedly decreased activity
[4]; estimated from ABTS activity
  concentration of active HRP: ~100 µg/L
[4]; first generation, no IPTG added
  higher peroxidase activity than the parent clone: 10-14 fold
[4]; judged by the ABTS activity
  share of HRP activity found in the LB culture medium: greater than 95%

B5: M7-4H (protein)
chain: TTETIQSNANLAPLPPHVPEHLVFDFDMYNPSNLSAGVQEAWAVLQESNVPDLVWTRCNGGHWIATRGQLIREAYEDYRHFSSECPFIPREAGEAYDFIPTSMDPPEQRQFRALANQVVGMPVVDKLENRIQELACSLIESLRPQGQCNFTEDYAEPFPIRIFMLLAGLPEEDIPHLKYLTDQMTRPDGSMTFAEAKEALYDYLIPIIEQRRQKPGTDAISIVANGQVNGRPITSDEAKRMCGLLLVGGLDTVVNFLSFSMEFLAKSPEHRQELIERPERIPAACEELLRRFSLVADGRILTSDYEFHGVQLKKGDQILLPQMLSGLDERKNACPMHVDFSRQKVSHTTFGHGSHLCLGQHLARREIIVTLKEWLTRIPDFSIAPGAQIQHKSGIVSGVQALPLVWDPATTKAV
modifications: Mutant M7-4H
[6]
  Relative rate towards 3-phenylpropionate (generation of fluorescence per time): 42.8 RFU/min
[7]
  Relative rate towards naphthalene (generation of fluorescence per time): 84.1 RFU/min
[8]
  Relative rate towards coumarin (generation of fluorescence per time): 11.5 RFU/min

B6: M7-8H (protein)
chain: TTETIQSNANLAPLPPHVPEHLVFDFDMYNPSNLSAGVQEAWAVLQESNVPDLVWTRCNGGHWIATRGQLIREAYEDYRHFSSECPFIPREAGEAYDFIPTSMDPPEQRQFRALANQVVGMPVVDKLENRIQELACSLIESLRPQGQCNFTEDYAEPFPIRIFMLLAGLPEEDIPHLKYLTDQMTRPDGSMTFAEAKEALYDYLIPIIEQRRQKPGTDAISIVANGQVNGRPITSDEAKRMFGLLLVGGLDTVVNFLSFSMEFLAKSPEHRQELIERPERIPAACEELLRRFSLVADGRILTSDYEFHGVQLKKGDQILLPQMLSGLDERKNACPMHVDFSRQKVSHTTFGHGSHLCLGQHLARREIIVTLKEWLTRIPDFSIAPGAQIQHKSGIVSGVQALPLVWDPATTKAV
modifications: Mutant M7-8H
[6]
  Relative rate towards 3-phenylpropionate (generation of fluorescence per time): 35.4 RFU/min
[7]
  Relative rate towards naphthalene (generation of fluorescence per time): 53.1 RFU/min
[8]
  Relative rate towards coumarin (generation of fluorescence per time): 12.8 RFU/min
